Sequences and labels used below:
B1: SH2 domain-containing protein 4A (Homo sapiens), Q9H788 (parent)
chain: MLKQILSEMYIDPDLLAELSEEQKQILFFKMREEQIRRWKEREAAMERKESLPVKPRPKKENGKSVHWKLGADKEVWVWVMGEHHLDKPYDVLCNEIIAERARLKAEQEAEEPRKTHSEEFTNSLKTKSQYHDLQAPDNQQTKDIWKKVAEKEELEQGSRPAPTLEEEKIRSLSSSSRNIQQMLADSINRMKAYAFHQKKESMKKKQDEEINQIEEERTKQICKSWKEDSEWQASLRKSKAADEKRRSLAKQAREDYKRLSLGAQKGRGGERLQSPLRVPQKPERPPLPPKPQFLNSGAYPQKPLRNQGVVRTLSSSAQEDIIRWFKEEQLPLRAGYQKTSDTIAPWFHGILTLKKANELLLSTGMPGSFLIRVSERIKGYALSYLSEDGCKHFLIDASADAYSFLGVDQLQHATLADLVEYHKEEPITSLGKELLLYPCGQQDQLPDYLELFE
B2: Coiled-coil domain-containing protein 33 (Homo sapiens), Q8N5R6-5 (parent)
chain: MGEPGPPSPPAPKAAPGLIDSFSEMNNYRRAMQKMAEDILSLRRQASILEGENRILRSRLAQQEEEEGQGKASEAQNTVSMKQKLLLSELDMKKLRDRVQHLQNELIRKNDREKELLLLYQAQQPQAALLKQYQGKLQKMKALEETVRHQEKVIEKMERVLEDRLQDRSKPPPLNRQQGKPYTGFPMLSASGLPLGSMGENLPVELYSVLLAENAKLRTELDKNRHQQAPIILQQQALPVDPGELGAGGDLTERLQETHGPGHSECTETLPAQDLLSGTSDKFNLLAKLEHAQSRILSLESQLEDSARRWGREKQDLATRLQEQEKGFRHPSNSIIIEQPVSDPPGVAPRGSGGGAGSHRTPKVTGP
partner: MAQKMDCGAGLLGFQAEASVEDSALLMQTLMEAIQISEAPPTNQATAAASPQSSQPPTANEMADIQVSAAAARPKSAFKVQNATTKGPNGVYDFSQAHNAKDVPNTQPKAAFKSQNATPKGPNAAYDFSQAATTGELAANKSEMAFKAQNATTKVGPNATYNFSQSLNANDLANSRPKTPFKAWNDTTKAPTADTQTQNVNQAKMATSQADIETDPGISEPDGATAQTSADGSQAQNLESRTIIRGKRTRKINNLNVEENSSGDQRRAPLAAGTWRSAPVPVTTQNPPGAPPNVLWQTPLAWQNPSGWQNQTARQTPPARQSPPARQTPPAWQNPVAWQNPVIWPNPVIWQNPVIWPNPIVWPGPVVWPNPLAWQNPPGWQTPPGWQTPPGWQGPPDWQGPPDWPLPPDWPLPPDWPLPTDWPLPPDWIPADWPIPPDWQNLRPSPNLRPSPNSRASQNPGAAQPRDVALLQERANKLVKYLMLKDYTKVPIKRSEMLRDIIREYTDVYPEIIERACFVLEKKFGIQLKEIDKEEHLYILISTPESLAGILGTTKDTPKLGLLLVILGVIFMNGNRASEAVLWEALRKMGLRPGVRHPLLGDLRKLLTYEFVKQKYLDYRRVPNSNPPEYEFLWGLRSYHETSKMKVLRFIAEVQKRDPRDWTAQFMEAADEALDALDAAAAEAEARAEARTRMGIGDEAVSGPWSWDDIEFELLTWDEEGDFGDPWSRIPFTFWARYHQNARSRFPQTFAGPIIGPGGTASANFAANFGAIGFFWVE
B3: Iron-sulfur cluster co-chaperone protein HscB (Homo sapiens), Q8IWL3 (parent)
chain: MWRGRAGALLRVWGFWPTGVPRRRPLSCDAASQAGSNYPRCWNCGGPWGPGREDRFFCPQCRALQAPDPTRDYFSLMDCNRSFRVDTAKLQHRYQQLQRLVHPDFFSQRSQTEKDFSEKHSTLVNDAYKTLLAPLSRGLYLLKLHGIEIPERTDYEMDRQFLIEIMEINEKLAEAESEAAMKEIESIVKAKQKEFTDNVSSAFEQDDFEEAKEILTKMRYFSNIEEKIKLKKIPL
B4: BICD family-like cargo adapter 2 (Homo sapiens), A1A5D9 (parent)
chain: MSSPDGPSFPSGPLSGGASPSGDEGFFPFVLERRDSFLGGGPGPEEPEDLALQLQQKEKDLLLAAELGKMLLERNEELRRQLETLSAQHLEREERLQQENHELRRGLAARGAEWEARAVELEGDVEALRAQLGEQRSEQQDSGRERARALSELSEQNLRLSQQLAQASQTEQELQRELDALRGQCQAQALAGAELRTRLESLQGENQMLQSRRQDLEAQIRGLREEVEKGEGRLQTTHEELLLLRRERREHSLELERARSEAGEALSALRRLQRRVSELEEESRLQDADVSAASLQSELAHSLDDGDQGQGADAPGDTPTTRSPKTRKASSPQPSPPEEILEPPKKRTSLSPAEILEEKEVEVAKLQDEISLQQAELQSLREELQRQKELRAQEDPGEALHSALSDRDEAVNKALELSLQLNRVSLERDSLSRELLRAIRQKVALTQELEAWQDDMQVVIGQQLRSQRQKELSASASSSTPRRAAPRFSLRLGPGPAGGFLSNLFRRT
B5: Dynein light chain 2, cytoplasmic (Homo sapiens), Q96FJ2 (parent)
chain: MSDRKAVIKNADMSEDMQQDAVDCATQAMEKYNIEKDIAAYIKKEFDKKYNPTWHCIVGRNFGSYVTHETKHFIYFYLGQVAILLFKSG
B6: Proline-rich protein 14 (Homo sapiens), Q9BWN1 (parent)
chain: MDLPGDSSPPGQPRLCRQPLTRALWGARSPKRPRLQLPGAPSPLEKASRRVLAVVLEDVMAVHMVPVVPSKQTSIPQHHSYHQDPVHRQPPASPPRQAGWSSQARPPDPLCLCREPLSRIHRTSSTLRRRSRTTPGPEEGPSQKVDRAPQPTLVVMLEDIASPRPPAEGFIDETPNFIIPAQRAEPMRIVRQPTPPPGDLEPPFQPSALPADPLESPPTAPDPALELPSTPPPSSLLRPRLSPWGLAPLFRSVRSKLESFADIFLTPNKTPQPPPPSPPMKLELKIAISEAEQSGAAEGTASVSPRPPIRQWRTQDHNTPALLPKPSLGRSYSCPDLGPPGPGTCTWPPAPPQPSRPRPRRHTVGGGEMARAPPPPRPCLRKEVFPLGGVGASPSLTTSCSSTASTSFSEPAEPRLGSTKGKEPRASKDQVLSEPETKTMGKVSRFRIRRTPARPQLNLTPMGLPRPIRLNKKEFSLEEIYTNKNYQSPTTRRTFETIFEEPRERNGTLIFTSSRKLRRAVEFRDSSLPRSRRPSRGVRAAGGRTVPPNVAPSPDVGPLLQQRLEELDALLLEEETVDREQPHWT
B7: Protein FRA10AC1 (Homo sapiens), Q70Z53 (parent)
chain: MHGHGGYDSDFSDDERCGESSKRKKRTVEDDLLLQKPFQKEKHGKVAHKQVAAELLDREEARNRRFHLIAMDAYQRHTKFVNDYILYYGGKKEDFKRLGENDKTDLDVIRENHRFLWNEEDEMDMTWEKRLAKKYYDKLFKEYCIADLSKYKENKFGFRWRVEKEVISGKGQFFCGNKYCDKKEGLKSWEVNFGYIEHGEKRNALVKLRLCQECSIKLNFHHRRKEIKSKKRKDKTKKDCEESSHKKSRLSSAEEASKKKDKGHSSSKKSEDSLLRNSDEEESASESELWKGPLPETDEKSQEEEFDEYFQDLFL

The first experiment covers variants of B1. Particulars: with tfp11_human TFIP11, Q9UBB9.
Chain of tfp11_human TFIP11, Q9UBB9 (Q9UBB9 whole entry): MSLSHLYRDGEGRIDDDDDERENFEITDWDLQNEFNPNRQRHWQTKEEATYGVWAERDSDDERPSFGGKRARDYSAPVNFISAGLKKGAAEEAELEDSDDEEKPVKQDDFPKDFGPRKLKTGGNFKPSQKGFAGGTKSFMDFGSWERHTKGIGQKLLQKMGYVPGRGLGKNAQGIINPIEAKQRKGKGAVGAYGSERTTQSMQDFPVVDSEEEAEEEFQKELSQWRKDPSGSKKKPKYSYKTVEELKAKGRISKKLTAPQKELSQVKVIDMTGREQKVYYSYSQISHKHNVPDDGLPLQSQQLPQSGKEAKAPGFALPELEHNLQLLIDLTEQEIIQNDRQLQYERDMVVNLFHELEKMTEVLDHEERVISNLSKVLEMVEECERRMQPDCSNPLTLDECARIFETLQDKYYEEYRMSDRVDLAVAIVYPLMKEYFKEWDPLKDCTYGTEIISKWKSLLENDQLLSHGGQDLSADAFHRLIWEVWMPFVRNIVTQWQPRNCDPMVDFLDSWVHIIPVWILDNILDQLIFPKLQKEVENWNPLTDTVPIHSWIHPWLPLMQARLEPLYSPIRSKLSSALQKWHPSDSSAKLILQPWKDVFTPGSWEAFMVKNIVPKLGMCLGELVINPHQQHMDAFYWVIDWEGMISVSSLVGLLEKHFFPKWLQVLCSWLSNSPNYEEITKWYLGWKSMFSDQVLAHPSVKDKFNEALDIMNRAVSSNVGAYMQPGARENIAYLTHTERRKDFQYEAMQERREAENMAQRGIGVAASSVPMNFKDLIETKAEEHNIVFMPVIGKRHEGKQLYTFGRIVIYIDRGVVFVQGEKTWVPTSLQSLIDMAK
With K303R, the “effect of a mutation on the interaction” value is “with no effect”.

A further experiment covers variants of B1. Particulars: with tacc1_human TACC1, O75410.
Chain of tacc1_human TACC1, O75410 (O75410 whole entry): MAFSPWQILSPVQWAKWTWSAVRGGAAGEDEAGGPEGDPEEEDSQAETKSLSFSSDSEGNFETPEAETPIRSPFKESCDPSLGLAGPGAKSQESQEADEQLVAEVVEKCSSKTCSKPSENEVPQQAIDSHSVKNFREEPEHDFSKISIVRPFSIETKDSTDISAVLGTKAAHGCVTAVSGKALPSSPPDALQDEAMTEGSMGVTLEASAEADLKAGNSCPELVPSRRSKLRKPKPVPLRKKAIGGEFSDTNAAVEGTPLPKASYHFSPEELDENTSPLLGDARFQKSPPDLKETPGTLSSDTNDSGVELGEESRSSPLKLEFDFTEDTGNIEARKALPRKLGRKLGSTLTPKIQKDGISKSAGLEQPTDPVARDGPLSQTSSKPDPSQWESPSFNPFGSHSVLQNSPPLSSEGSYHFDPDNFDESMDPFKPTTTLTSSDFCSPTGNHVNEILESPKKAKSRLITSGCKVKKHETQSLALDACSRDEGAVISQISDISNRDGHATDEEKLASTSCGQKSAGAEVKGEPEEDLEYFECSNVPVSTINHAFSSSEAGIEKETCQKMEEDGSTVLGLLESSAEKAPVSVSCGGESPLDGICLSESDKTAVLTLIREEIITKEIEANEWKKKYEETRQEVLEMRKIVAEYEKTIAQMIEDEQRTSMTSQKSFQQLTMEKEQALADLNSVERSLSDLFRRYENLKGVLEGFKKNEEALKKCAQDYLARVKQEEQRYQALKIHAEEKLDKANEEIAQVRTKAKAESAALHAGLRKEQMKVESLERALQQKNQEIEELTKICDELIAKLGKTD
For the variant K303R, the “effect of a mutation on the interaction” value was “with no effect”.

A further experiment covers variants of B1. Particulars: with ldoc1_human LDOC1, O95751.
Chain of ldoc1_human LDOC1, O95751 (O95751 whole entry): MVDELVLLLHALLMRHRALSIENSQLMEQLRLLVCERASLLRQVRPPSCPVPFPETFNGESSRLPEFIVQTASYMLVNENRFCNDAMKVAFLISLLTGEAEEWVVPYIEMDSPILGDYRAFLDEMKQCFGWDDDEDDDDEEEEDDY
Consider K303R, for which the “effect of a mutation on the interaction” value is on record as “with no effect”.

In a further experiment the parent is B2. Particulars: with magd1_human MAGED1, Q9Y5V3.
On to P203L, for which the “effect of a mutation on the interaction” value is reported as “with no effect”. Turning to M25V, the “effect of a mutation on the interaction” value is reported as “with no effect”. Still for that read-out and setting: the same measure for G196R: “with no effect”.

As for R30L, the “effect of a mutation on the interaction” value is “with no effect”.

In the next experiment the parent is B3. Particulars: with atrap_human AGTRAP.
As for I163M, the “effect of a mutation on the interaction” value is recorded as “disrupting interaction strength”.

The variants in the next experiment derive from B4. Particulars: with klc3_human KLC3, Q6P597.
Chain of klc3_human KLC3, Q6P597 (Q6P597 whole entry): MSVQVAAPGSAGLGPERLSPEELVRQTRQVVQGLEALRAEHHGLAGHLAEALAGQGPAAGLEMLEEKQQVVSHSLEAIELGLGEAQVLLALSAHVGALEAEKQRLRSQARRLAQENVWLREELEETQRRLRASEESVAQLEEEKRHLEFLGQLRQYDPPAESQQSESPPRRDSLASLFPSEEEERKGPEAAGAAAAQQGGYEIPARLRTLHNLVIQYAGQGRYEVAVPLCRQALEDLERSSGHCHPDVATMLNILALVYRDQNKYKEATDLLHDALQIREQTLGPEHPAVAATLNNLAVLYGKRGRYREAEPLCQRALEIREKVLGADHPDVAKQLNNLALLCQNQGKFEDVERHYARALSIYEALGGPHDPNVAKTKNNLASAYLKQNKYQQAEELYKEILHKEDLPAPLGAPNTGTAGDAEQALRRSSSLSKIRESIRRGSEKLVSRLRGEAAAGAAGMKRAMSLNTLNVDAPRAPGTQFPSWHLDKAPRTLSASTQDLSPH
As to E58K, the “effect of a mutation on the interaction” value is recorded as “with no effect”.

The next experiment covers variants of B5. Particulars: with tha10_human THAP10, Q9P2Z0.
Chain of tha10_human THAP10, Q9P2Z0 (Q9P2Z0 whole entry): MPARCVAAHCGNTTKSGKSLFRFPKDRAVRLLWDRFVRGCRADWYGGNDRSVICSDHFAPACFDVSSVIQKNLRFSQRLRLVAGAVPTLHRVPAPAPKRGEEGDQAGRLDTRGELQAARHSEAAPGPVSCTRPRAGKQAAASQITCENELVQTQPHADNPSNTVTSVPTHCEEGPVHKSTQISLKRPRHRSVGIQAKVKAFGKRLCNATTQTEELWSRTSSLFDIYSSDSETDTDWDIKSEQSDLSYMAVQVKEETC
With N33S, the “effect of a mutation on the interaction” value is given as “with no effect”.

Variants of B6 are the subject of another experiment. Particulars: with cbx5_human CBX5, P45973.
Chain of cbx5_human CBX5, P45973 (P45973 whole entry): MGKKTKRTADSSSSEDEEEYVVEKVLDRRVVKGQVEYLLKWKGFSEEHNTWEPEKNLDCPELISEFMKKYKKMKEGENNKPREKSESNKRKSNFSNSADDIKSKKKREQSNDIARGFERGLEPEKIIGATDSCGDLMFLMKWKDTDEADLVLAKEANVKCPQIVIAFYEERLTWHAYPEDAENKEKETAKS
On to R114L, for which the “effect of a mutation on the interaction” value was “with no effect”. With P359L, the “effect of a mutation on the interaction” value is “with no effect”.

In another experiment the parent is B7. Particulars: with tri41_human TRIM41, Q8WV44.
As for S251F, the “effect of a mutation on the interaction” value is “with no effect”.
